According to patent publication US5994104:

Experiments:
IL-12 receptor [1] = target: IL-12 receptor
IL-12 receptor [2] = target: IL-12 receptor; remark: listed apart in the source

recombinant IL-12 (from UniProt P29459) (ligand)
proliferation of PHA blasts (MTT assay, 48 hours); lowest dose with an effect (IL-12 receptor [1]): 10 pg/mL | INF-γ production by PHA blasts (ELISA, 36 hours) (IL-12 receptor [2]): 186 ng/mL
